According to PMC6739345, “CAND1 regulates lunapark for the proper tubular network of the endoplasmic reticulum” (Scientific Reports, 2019):
Ends that are not written are not given here.

T1: MBP-fused CAND1 (human, UniProt Q86VP6 1-1230)
T1 construct: Cullin-associated and neddylation-dissociated 1 (CAND1), human; cDNA bought from the Kazusa DNA Research Institute, in pMAL-C2; also called MBP-CAND1; source: E. coli Rosetta-Gami, purified (amylose resin, eluted with maltose)
T1 sequence (looked up): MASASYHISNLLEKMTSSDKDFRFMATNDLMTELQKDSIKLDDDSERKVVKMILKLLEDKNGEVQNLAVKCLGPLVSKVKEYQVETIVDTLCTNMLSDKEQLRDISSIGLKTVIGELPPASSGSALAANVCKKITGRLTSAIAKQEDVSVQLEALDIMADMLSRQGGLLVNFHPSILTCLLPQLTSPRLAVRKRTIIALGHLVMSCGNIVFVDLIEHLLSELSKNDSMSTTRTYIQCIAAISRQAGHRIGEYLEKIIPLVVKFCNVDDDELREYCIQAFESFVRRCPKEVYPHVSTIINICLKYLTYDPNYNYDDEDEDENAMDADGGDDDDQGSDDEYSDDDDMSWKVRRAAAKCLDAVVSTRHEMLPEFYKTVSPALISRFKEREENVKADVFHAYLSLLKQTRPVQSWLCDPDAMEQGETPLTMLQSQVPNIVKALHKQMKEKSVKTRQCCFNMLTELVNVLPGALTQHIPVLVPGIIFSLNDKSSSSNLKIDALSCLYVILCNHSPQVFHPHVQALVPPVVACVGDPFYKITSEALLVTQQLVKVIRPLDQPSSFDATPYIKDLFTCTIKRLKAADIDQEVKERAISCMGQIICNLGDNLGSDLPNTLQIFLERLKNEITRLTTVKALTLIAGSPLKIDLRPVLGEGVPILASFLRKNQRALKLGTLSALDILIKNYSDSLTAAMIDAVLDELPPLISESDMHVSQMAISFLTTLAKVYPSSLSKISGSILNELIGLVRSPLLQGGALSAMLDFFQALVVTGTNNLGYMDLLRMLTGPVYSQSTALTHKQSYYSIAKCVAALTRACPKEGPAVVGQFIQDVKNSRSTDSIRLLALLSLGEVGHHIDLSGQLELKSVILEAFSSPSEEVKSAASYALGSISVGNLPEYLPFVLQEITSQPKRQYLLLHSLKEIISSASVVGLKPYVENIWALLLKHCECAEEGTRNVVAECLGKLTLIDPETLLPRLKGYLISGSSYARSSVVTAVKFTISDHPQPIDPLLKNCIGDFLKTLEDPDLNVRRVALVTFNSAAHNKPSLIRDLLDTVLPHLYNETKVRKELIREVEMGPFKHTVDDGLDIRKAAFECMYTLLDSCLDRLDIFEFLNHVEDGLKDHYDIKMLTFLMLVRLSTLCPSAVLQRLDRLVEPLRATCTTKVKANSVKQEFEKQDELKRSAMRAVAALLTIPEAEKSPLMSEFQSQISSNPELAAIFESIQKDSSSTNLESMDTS

B1: hexa histidine-tagged Lnp, wild type (natural protein, human, UniProt Q9C0E8 1-428, looked up)
chain: MGGLFSRWRTKPSTVEVLESIDKEIQALEEFREKNQRLQKLWVGRLILYSSVLYLFTCLIVYLWYLPDEFTARLAMTLPFFAFPLIIWSIRTVIIFFFSKRTERNNEALDDLKSQRKKILEEVMEKETYKTAKLILERFDPDSKKAKECEPPSAGAAVTARPGQEIRQRTAAQRNLSPTPASPNQGPPPQVPVSPGPPKDSSAPGGPPERTVTPALSSNVLPRHLGSPATSVPGMGLHPPGPPLARPILPRERGALDRIVEYLVGDGPQNRYALICQQCFSHNGMALKEEFEYIAFRCAYCFFLNPARKTRPQAPRLPEFSFEKRQVVEGSSSVGPLPSGSVLSSDNQFNEESLEHDVLDDNTEQTDDKIPATEQTNQVIEKASDSEEPEEKQETENEEASVIETNSTVPGADSIPDPELSGESLTAE
notes: lunapark (Lnp), human; cDNA amplified from a human cDNA library, in pET28a(+); also called His-Lnp; His-Lnp WT; source: E. coli BL21 (DE3), purified (Ni-agarose)
B2: GST-fused Lnp (lunapark) (natural protein, human, UniProt Q9C0E8 1-428, looked up)
chain: B1 chain
notes: lunapark (Lnp), human; cDNA amplified from a human cDNA library, in pGEX-6P-1; the same cDNA was subcloned into all vectors; also called GST-Lnp; GST-Lnp WT; source: E. coli BL21 (DE3), purified (glutathione Sepharose)
B3: His-Lnp ΔTM (transmembrane domains replaced by a (GGS)3 linker) (natural protein, human)
chain: MGGLFSRWRTKPSTVEVLESIDKEIQALEEFREKNQRLQKLWVGGGSGGSGGSRTERNNEALDDLKSQRKKILEEVMEKETYKTAKLILERFDPDSKKAKECEPPSAGAAVTARPGQEIRQRTAAQRNLSPTPASPNQGPPPQVPVSPGPPKDSSAPGGPPERTVTPALSSNVLPRHLGSPATSVPGMGLHPPGPPLARPILPRERGALDRIVEYLVGDGPQNRYALICQQCFSHNGMALKEEFEYIAFRCAYCFFLNPARKTRPQAPRLPEFSFEKRQVVEGSSSVGPLPSGSVLSSDNQFNEESLEHDVLDDNTEQTDDKIPATEQTNQVIEKASDSEEPEEKQETENEEASVIETNSTVPGADSIPDPELSGESLTAE
notes: lunapark (Lnp), human, the stretch before the transmembrane domains (45–100 aa); polypeptide linker (GGS)3 in place of residues 45–100; lunapark (Lnp), human, the stretch after the transmembrane domains (45–100 aa); source: E. coli BL21 (DE3), purified (Ni-agarose)
B4: His-Lnp ΔUb (Lnp lacking the N-terminal ubiquitin ligase domain) (domain or fragment, human, UniProt Q9C0E8 46-428, looked up)
chain: LILYSSVLYLFTCLIVYLWYLPDEFTARLAMTLPFFAFPLIIWSIRTVIIFFFSKRTERNNEALDDLKSQRKKILEEVMEKETYKTAKLILERFDPDSKKAKECEPPSAGAAVTARPGQEIRQRTAAQRNLSPTPASPNQGPPPQVPVSPGPPKDSSAPGGPPERTVTPALSSNVLPRHLGSPATSVPGMGLHPPGPPLARPILPRERGALDRIVEYLVGDGPQNRYALICQQCFSHNGMALKEEFEYIAFRCAYCFFLNPARKTRPQAPRLPEFSFEKRQVVEGSSSVGPLPSGSVLSSDNQFNEESLEHDVLDDNTEQTDDKIPATEQTNQVIEKASDSEEPEEKQETENEEASVIETNSTVPGADSIPDPELSGESLTAE
notes: lunapark (Lnp), human, lacking Lnp Ub (the N-terminal cytoplasmic domain, 1–45 aa), in pET28a(+); The start 46 follows from the printed limits of Lnp Ub (1–45 aa); source: E. coli BL21 (DE3), purified (Ni-agarose)
B5: His-Lnp ΔCC (Lnp lacking the coiled-coil domain) (natural protein, human, UniProt Q9C0E8 1-428, looked up)
chain: MGGLFSRWRTKPSTVEVLESIDKEIQALEEFREKNQRLQKLWVGRLILYSSVLYLFTCLIVYLWYLPDEFTARLAMTLPFFAFPLIIWSIRTVIIFFFSKKAKECEPPSAGAAVTARPGQEIRQRTAAQRNLSPTPASPNQGPPPQVPVSPGPPKDSSAPGGPPERTVTPALSSNVLPRHLGSPATSVPGMGLHPPGPPLARPILPRERGALDRIVEYLVGDGPQNRYALICQQCFSHNGMALKEEFEYIAFRCAYCFFLNPARKTRPQAPRLPEFSFEKRQVVEGSSSVGPLPSGSVLSSDNQFNEESLEHDVLDDNTEQTDDKIPATEQTNQVIEKASDSEEPEEKQETENEEASVIETNSTVPGADSIPDPELSGESLTAE
notes: lunapark (Lnp), human, lacking the coiled-coil domain (100–143 aa), in pET28a(+); source: E. coli BL21 (DE3), purified (Ni-agarose)
B6: GST-Lnp Ub (N-terminal ubiquitin ligase domain of Lnp) (domain or fragment, human, UniProt Q9C0E8 1-45, looked up)
chain: {GST}-MGGLFSRWRTKPSTVEVLESIDKEIQALEEFREKNQRLQKLWVGR
notes: lunapark (Lnp), human, N-terminal cytoplasmic domain (1–45 aa, Ub), in pGEX-6P-1; source: E. coli BL21 (DE3), purified (glutathione Sepharose, eluted with glutathione)
B7: His-Lnp ΔZn + LNPARK (Lnp lacking the zinc finger motif and the following LNPARK amino acids) (natural protein, human, UniProt Q9C0E8 1-428, looked up)
chain: MGGLFSRWRTKPSTVEVLESIDKEIQALEEFREKNQRLQKLWVGRLILYSSVLYLFTCLIVYLWYLPDEFTARLAMTLPFFAFPLIIWSIRTVIIFFFSKRTERNNEALDDLKSQRKKILEEVMEKETYKTAKLILERFDPDSKKAKECEPPSAGAAVTARPGQEIRQRTAAQRNLSPTPASPNQGPPPQVPVSPGPPKDSSAPGGPPERTVTPALSSNVLPRHLGSPATSVPGMGLHPPGPPLARPILPRERGALDRIVEYLVGDGPQNRYALTRPQAPRLPEFSFEKRQVVEGSSSVGPLPSGSVLSSDNQFNEESLEHDVLDDNTEQTDDKIPATEQTNQVIEKASDSEEPEEKQETENEEASVIETNSTVPGADSIPDPELSGESLTAE
notes: lunapark (Lnp), human, lacking the zinc finger motif and the following LNPARK amino acids (275–309 aa), in pET28a(+); source: E. coli BL21 (DE3), purified (Ni-agarose)

Legend:
[1] = molecular target: T1, MBP-fused CAND1; experiment: sucrose density gradient ultracentrifugation; His-Lnp (0.6 nmol) alone or incubated with MBP-CAND1 (2 nmol) in buffer H (20 mM Tris-HCl pH 7.5, 150 mM NaCl, 1% Triton X-100), 10–40% (w/v) sucrose gradient, 200,000 x g, 4 °C, 20 h; 17 fractions, CBB staining; settings: both partners purified
[2] = molecular target: the molecule itself; experiment: as above
[3] = molecular target: T1, MBP-fused CAND1; experiment: pull-down; GST-Lnp or GST-Lnp Ub (0.6 nmol) immobilised on glutathione Sepharose, incubated with MBP-CAND1 (6 nmol) in buffer A with 1% Triton X-100, 4 °C 2 h; CBB staining; settings: both partners purified
[4] = molecular target: T1, MBP-fused CAND1; experiment: pull-down; His-Lnp WT or deletion mutants (0.5 nmol) immobilised on Ni-agarose, incubated with MBP-CAND1 or MBP alone (3 nmol) in buffer G with 10 mM imidazole, 4 °C 2 h; CBB staining; settings: both partners purified
[5] = molecular target: B4; experiment: pull-down; His-Lnp ΔUb (0.6 nmol) immobilised on Ni-agarose, incubated with GST-Lnp Ub (3 nmol) or GST alone, or with GST-Lnp Ub (1.2 nmol) and MBP-CAND1 or MBP alone (6 nmol), in buffer G with 20 mM imidazole and 1 mM DTT, 4 °C 2 h; CBB staining; settings: both partners purified

Binder | binding result [4] | further results
B1 | – | binding result [1]: binds; binding result [2]: binds
B2 | – | binding result [3]: binds
B3 | binds | –
B4 | binds | –
B5 | binds | –
B6 | – | binding result [5]: binds
B7 | binds | –
